# Test results from patent US6858210B1, “Therapeutic and diagnostic domain 1 β2GPI polypeptides and methods of using same” (La Jolla Pharmaceutical Co., priority 1998, dated 2005).
# “And” between values parts separate entries of the source, which are not always exact repeats. Equal entries are not always repeated. Where two headings read alike, the source gives them in different places.
# Legend:
# [1] = system: affinity purified β2GPI-dependent antiphospholipid antibody; assay: Competitive inhibition ELISA: recombinant β2GPI proteins compete for antibody binding to coated full length recombinant β2GPI; parameters: species or system human; conditions: for IC50: read-out: 50% (concentration to give 50% inhibition)
# Outline: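 Wells coated with full-length recombinant β2GPI (10 μg/ml, pH 9.5) and milk-blocked. Serially diluted recombinant β2GPI proteins were co-incubated with a fixed concentration of patient antibody for 1 h at 37 °C. Bound IgG detected with alkaline phosphatase anti-human IgG at OD550; percent inhibition is background-corrected against inhibitor-free wells.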
# [2] = system: affinity purified β2GPI-dependent antiphospholipid antibody; assay: Direct binding ELISA, nickel chelate-coated wells charged with recombinant β2GPI proteins (no cardiolipin); parameters: species or system human; conditions: O.D. at 550 nm
# Outline: (§1)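 His-tagged recombinant β2GPI mutants captured on nickel chelate wells in serial dilution (2 h, room temperature), no anionic phospholipid; GST-6his as negative control. Affinity-purified patient antibodies (11 patients) or rabbit anti-β2GPI detected by alkaline phosphatase anti-IgG, OD 550 nm.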
# rabbit anti-β2GPI = assay: Direct binding ELISA, nickel chelate-coated wells, rabbit antibody; conditions: O.D. at 550 nm
# Outline: as §1
molecule,measurement,setting,value
"1----: recombinant β2GPI protein with domain 1 only (SEQ ID NO:4 region), His6 tail (protein) GRTCPKPDDLPFSTVVPLKTFYEPGEEITYSCKPGYVSRGGMRKFICPLTGLWPINTLKCTPRVGHHHHHH",Max (maximum inhibition observed at concentrations tested),[1]; Ab 6203,60%
same,Max (maximum inhibition observed at concentrations tested),"[1]; Ab 6203, listed as 1 - - - -",20%
same,IC50,[1]; Ab 6203,> 10 µM
same,Max (maximum inhibition observed at concentrations tested),[1]; Ab 6501,70%
same,Max (maximum inhibition observed at concentrations tested),"[1]; Ab 6501, listed as 1 - - - -",30%
same,IC50,"[1]; Ab 6501, listed as 1 - - - -",> 10 µM
same,Max (maximum inhibition observed at concentrations tested),[1]; Ab 6626,85%
same,Max (maximum inhibition observed at concentrations tested),"[1]; Ab 6626, listed as 1 - - - -",50%
same,IC50,"[1]; Ab 6626, listed as 1 - - - -",> 10 µM
same,IC50,[1]; Ab 6626,8 µM and > 10 µM
same,Max (maximum inhibition observed at concentrations tested),[1]; Ab 6632,90%
same,Max (maximum inhibition observed at concentrations tested),"[1]; Ab 6632, listed as 1 - - - -",70%
same,IC50,"[1]; Ab 6632, listed as 1 - - - -",3 µM
same,IC50,[1]; Ab 6632,8 µM
same,Max (maximum inhibition observed at concentrations tested),[1]; Ab 6641,98%
same,IC50,[1]; Ab 6641,> 10 µM
same,Max (maximum inhibition observed at concentrations tested),[1]; Ab 6644,90%
same,Max (maximum inhibition observed at concentrations tested),"[1]; Ab 6644, listed as 1 - - - -",45%
same,IC50,"[1]; Ab 6644, listed as 1 - - - -",> 10 µM
same,IC50,[1]; Ab 6644,8 µM and > 10 µM
same,Max (maximum inhibition observed at concentrations tested),[1]; Ab 6701,80%
same,IC50,[1]; Ab 6701,4 µM
same,Max (maximum inhibition observed at concentrations tested),[1]; Ab 7008,70%
same,Max (maximum inhibition observed at concentrations tested),"[1]; Ab 7008, listed as 1 - - - -",40%
same,IC50,[1]; Ab 7008,> 10 µM
same,Max (maximum inhibition observed at concentrations tested),[1]; Ab 7015,90%
same,Max (maximum inhibition observed at concentrations tested),"[1]; Ab 7015, listed as 1 - - - -",30%
same,IC50,"[1]; Ab 7015, listed as 1 - - - -",> 10 µM
same,IC50,[1]; Ab 7015,8 µM and > 10 µM
same,Max (maximum inhibition observed at concentrations tested),[1]; Ab 7101,70%
same,Max (maximum inhibition observed at concentrations tested),"[1]; Ab 7101, listed as 1 - - - -",20%
same,IC50,"[1]; Ab 7101, listed as 1 - - - -",> 10 µM
same,IC50,[1]; Ab 7101,8 µM and > 10 µM
same,Max (maximum inhibition observed at concentrations tested),[1]; Ab 7104,90%
same,IC50,[1]; Ab 7104,0.8 µM
same,Maximum O.D.,[2]; Ab 6203,1.029
same,Maximum O.D.,[2]; Ab 6501,0.911
same,Maximum O.D.,[2]; Ab 6626,0.560
same,Maximum O.D.,[2]; Ab 6632,0.351
same,Maximum O.D.,[2]; Ab 6641,0.252
same,Maximum O.D.,[2]; Ab 6644,0.493
same,Maximum O.D.,[2]; Ab 6652,0.262
same,Maximum O.D.,[2]; Ab 6701,0.388
same,Maximum O.D.,[2]; Ab 7008,0.195
same,Maximum O.D.,[2]; Ab 7015,1.102
same,Maximum O.D.,[2]; Ab 7101,0.804
same,Maximum O.D.,rabbit anti-β2GPI,1.9737
"12345: recombinant full length human β2GPI (domains 1-5) with C-terminal GlyHis6, baculovirus expressed (protein) GRTCPKPDDLPFSTVVPLKTFYEPGEEITYSCKPGYVSRGGMRKFICPLTGLWPINTLKCTPRVCPFAGILENGAVRYTTFEYPNTISFSCNTGFYLNGADSAKCTEEGKWSPELPVCAPIICPPPSIPTFATLRVYKPSAGNNSLYRDTAVFECLPQHAMFGNDTITCTTHGNWTKLPECREVKCPFPSRPDNGFVNYPAKPTLYYKDKATFGCHDGYSLDGPEEIECTKLGNWSAMPSCKASCKLPVKKATVVYQGERVKIQEKFKNGMLHGDKVSFFCKNKEKKCSYTEDAQCIDGTIEVPKCFKEHSSLAFWKTDASDVKPCGHHHHHH",Max (maximum inhibition observed at concentrations tested),[1]; Ab 6203,75%
same,IC50,[1]; Ab 6203,0.8 µM
same,Max (maximum inhibition observed at concentrations tested),[1]; Ab 6501,80%
same,IC50,[1]; Ab 6501,0.2 µM
same,Max (maximum inhibition observed at concentrations tested),[1]; Ab 6509,70%
same,IC50,[1]; Ab 6509,0.1 µM
same,Max (maximum inhibition observed at concentrations tested),[1]; Ab 6626,80%
same,IC50,[1]; Ab 6626,0.3 µM
same,Max (maximum inhibition observed at concentrations tested),[1]; Ab 6632,90%
same,IC50,[1]; Ab 6632,0.8 µM
same,Max (maximum inhibition observed at concentrations tested),[1]; Ab 6641,96%
same,IC50,[1]; Ab 6641,0.1 µM
same,Max (maximum inhibition observed at concentrations tested),[1]; Ab 6644,90%
same,IC50,[1]; Ab 6644,0.2 µM
same,Max (maximum inhibition observed at concentrations tested),[1]; Ab 6652,95%
same,IC50,[1]; Ab 6652,0.8 µM
same,Max (maximum inhibition observed at concentrations tested),[1]; Ab 6701,100%
same,IC50,[1]; Ab 6701,0.1 µM
same,Max (maximum inhibition observed at concentrations tested),[1]; Ab 7008,90%
same,IC50,[1]; Ab 7008,0.2 µM
same,Max (maximum inhibition observed at concentrations tested),[1]; Ab 7015,90%
same,IC50,[1]; Ab 7015,0.2 µM
same,Max (maximum inhibition observed at concentrations tested),[1]; Ab 7101,80%
same,IC50,[1]; Ab 7101,0.8 µM
same,Max (maximum inhibition observed at concentrations tested),[1]; Ab 7104,90%
same,IC50,[1]; Ab 7104,0.8 µM
same,Maximum O.D.,[2]; Ab 6203,1.270
same,Maximum O.D.,[2]; Ab 6501,1.772
same,Maximum O.D.,[2]; Ab 6626,1.527
same,Maximum O.D.,[2]; Ab 6632,1.419
same,Maximum O.D.,[2]; Ab 6641,2.555
same,Maximum O.D.,[2]; Ab 6644,1.848
same,Maximum O.D.,[2]; Ab 6652,0.640
same,Maximum O.D.,[2]; Ab 6701,0.948
same,Maximum O.D.,[2]; Ab 7008,1.380
same,Maximum O.D.,[2]; Ab 7015,1.864
same,Maximum O.D.,[2]; Ab 7101,1.257
same,Maximum O.D.,rabbit anti-β2GPI,2.065
recombinant β2GPI domain 5 with GlyHis6 (----5) (protein) GRASCKLPVKKATVVYQGERVKIQEKFKNGMLHGDKVSFFCKNKEKKCSYTEDAQCIDGTIEVPKCFKEHSSLAFWKTDASDVKPCGHHHHHH,Max (maximum inhibition observed at concentrations tested),[1]; Ab 6203,5%
same,IC50,[1]; Ab 6203,> 47 µM
same,Max (maximum inhibition observed at concentrations tested),[1]; Ab 6501,10%
same,IC50,[1]; Ab 6501,> 47 µM
same,Max (maximum inhibition observed at concentrations tested),[1]; Ab 6509,10%
same,IC50,[1]; Ab 6509,> 47 µM
same,Max (maximum inhibition observed at concentrations tested),[1]; Ab 6626,10%
same,IC50,[1]; Ab 6626,> 47 µM
same,Max (maximum inhibition observed at concentrations tested),[1]; Ab 6632,10%
same,IC50,[1]; Ab 6632,> 47 µM
same,Max (maximum inhibition observed at concentrations tested),[1]; Ab 6641,10%
same,IC50,[1]; Ab 6641,> 47 µM
same,Max (maximum inhibition observed at concentrations tested),[1]; Ab 6644,10%
same,IC50,[1]; Ab 6644,> 47 µM
same,Max (maximum inhibition observed at concentrations tested),[1]; Ab 6652,15%
same,IC50,[1]; Ab 6652,> 47 µM
same,Max (maximum inhibition observed at concentrations tested),[1]; Ab 6701,10%
same,IC50,[1]; Ab 6701,> 47 µM
same,Max (maximum inhibition observed at concentrations tested),[1]; Ab 7008,20%
same,IC50,[1]; Ab 7008,> 47 µM
same,Max (maximum inhibition observed at concentrations tested),[1]; Ab 7015,10%
same,IC50,[1]; Ab 7015,> 47 µM
same,Max (maximum inhibition observed at concentrations tested),[1]; Ab 7101,5%
same,IC50,[1]; Ab 7101,> 47 µM
same,Max (maximum inhibition observed at concentrations tested),[1]; Ab 7104,0%
same,IC50,[1]; Ab 7104,> 47 µM
same,Maximum O.D.,[2]; Ab 6203,0.044
same,Maximum O.D.,[2]; Ab 6501,0.004
same,Maximum O.D.,[2]; Ab 6626,0.028
same,Maximum O.D.,[2]; Ab 6632,0.013
same,Maximum O.D.,[2]; Ab 6641,0.018
same,Maximum O.D.,[2]; Ab 6644,0.017
same,Maximum O.D.,[2]; Ab 6652,0.012
same,Maximum O.D.,[2]; Ab 6701,0.000
same,Maximum O.D.,[2]; Ab 7008,0.007
same,Maximum O.D.,[2]; Ab 7015,0.078
same,Maximum O.D.,[2]; Ab 7101,0.078
same,Maximum O.D.,rabbit anti-β2GPI,1.663
